Assay results from US20160053242A1, “THERMOSTABLE NUCLEASE” (priority 2013, published 2016).

Assays:
[1] = Active two-dimensional gel electrophoresis (isoelectric point); type: physicochemical; conditions: partially purified crude extracts of CCRI-10035 heated at 80° C. for 1 h; 2D gel
Experimental: Protein concentration was measured by the method of Bradford. An 18 cm Immobiline™ pH 4-7 DryStrip was applied. Proteins (200 μg) were diluted in T8 buffer (7 M Urea, 3% W/V CHAPS; 3-[(3-cholamidopropyl)dimethylammonio]-1-propanesulfonate, 20 mM DTT; dithiothreitol, 5 mM TCEP; tris(2-carboxyethyl)phosphine hydrochloride) and precipitated with 2-D clean-up kit (Amersham Biosciences) to remove substances interfering with isoelectric focusing (IEF) such as detergents, salts, lipids, phenolic and nucleic acids. IEF was carried out using IPTGhor IEF system (Amersham Biosciences) for the first dimension as recommended by the manufacturer. After first dimension, the strip was cut 5 cm from (+) terminal and 7 cm from (−) terminal. The cut strip was linked with agarose onto 12% SDS-PAGE containing 20 μg/ml dsDNA calf thymus DNA (Calbiochem). Markers and proteins were prepared according to the manufacturer's instructions on Whatman paper and run alongside the cut strip. After electrophoresis, the gel was rinsed with water, and placed into the gel incubation buffer (20 mM Tris-HCl, pH 9.08, 20 mM MgCl2). Two hours later, the gel was rinsed again and incubated in the gel incubation buffer overnight at 37° C. […] Trypsin fragmentation results were analyzed using Mascot software (Matrix Science) for peptide identification. […]

[2] = tested on: calf thymus ssDNA; assay: Assay of nuclease activity, substrate specificity: ssDNA; conditions: no metal ion added
Experimental: (§1) Standard (20 μl) reaction mixture contained 2 μg of calf thymus dsDNA in activity buffer (20 mM Tris-HCl, 20 mM MgCl2 at pH 7.24). When required, several concentrations of alternative divalent cations, BaCl2, CaCl2, NaCl, MnSO4, NiSO4, MgCl2, CoCl2, KCl, were tested and the effects of other compounds (0.1, 0.25, 0.5 and 1 mg/ml BSA, 0.05, 0.1, 0.5 and 1 mM dNTPs, 2, 5, 10, 20, 50, 100 mM EDTA, 5, 15, 30, 50% glycerol, 0.1, 0.25, 0.5 and 1% SDS, and 1, 2, 3, 4, 5, 6, 7 and 8 M urea) were investigated. […] In all cases, the reaction was started by the addition of 2 μl of nickel column purified enzyme, and terminated by adding 4 μl of agarose gel loading buffer (0.1 M EDTA, pH 8.0, 0.05% bromophenol blue, 50% glycerol). Nuclease activity was evaluated by assessing DNA degradation level on gel electrophoresis (1.2% agarose, with 0.25 μg/ml of ethidium bromide, at 170 V for 30 min, in Tris-borate EDTA buffer).

[3] = tested on: plasmid DNA pET-24a(+) (closed circular double stranded); assay: Assay of nuclease activity, substrate specificity: plasmid DNA; conditions: no metal ion added
Experimental: as §1

[4] = tested on: calf thymus dsDNA; assay: Assay of nuclease activity, DNA degradation level on agarose gel
Experimental: as §1

[5] = digestion of calf thymus dsDNA at 37° C.

B1: Nucyep: thermostable non-specific nuclease from Yersinia enterocolitica subsp. palearctica; 283-amino-acid protein, SEQ ID NO. 6 (protein)
chain: MKFNLIKLLPVLLLTACTTTDHSMSAPKTILSAPTVTEQNLPAAAIDNCLVGCPTGGSDQTVIRDVYTLNNNSHTKFANWVAYKVTKSSQASNHPRKWAQDPDLPDSDTLAPADYTGANQKLAVDRGHQAPLSLLAGNEDSQALNYLSNITPQKAALNQGAWVRLEDQERNLANRPDVTAVYSVTGPLFERHIATLPAKPTVEIPSGYWKIIFIGTSPDKGQYAAFLMDQNTAKSANFCDYQVNVDTIEAKTNPQLTIWSNLPADVAQIIKSQKGTLAQTIGCD
modifications: Yersinia enterocolitica sub. paleartica
**Q.** Which results are given for B1?
**A.** Isoelectric point of the spot with heat-stable nuclease activity [1]: about 5.2; Nuclease activity on ssDNA without addition of metal ions [2]: able to degrade; Nuclease activity on plasmid (circular ds) DNA without addition of metal ions [3]: but not the circular dsDNA or RNA; Effect of 2 mM Ca2+ on nuclease activity ([4]; 2 mM Ca2+): inhibited; Effect of 2 mM CuSO4 on nuclease activity ([4]; 2 mM CuSO4): inhibited; Effect of 2 mM ZnCl2 on nuclease activity ([4]; 2 mM ZnCl2): inhibited; Effect of 0.1% SDS on nuclease activity ([4]; 0.1% SDS): inhibited; Effect of 100 mM EDTA on nuclease activity ([4]; EDTA 100 mM): inhibited; Activity left after heating at 80° C. for 60 minutes (1 h) [4, 5]: ~5%; Activity left after heating at 100° C. for 20 minutes [4, 5]: ~5%; Optimum temperature ([4]; examined within 0 to 100° C.): about 35 °C; Activity after exposure to longer times at 100° C. ([4]; longer than 20 minutes at 100° C., compared to undigested controls): no remaining nuclease activity; Nuclease activity on dsDNA without addition of metal ions ([4]; no metal ion added, linear dsDNA): able to degrade
